Consider 8 molecules from US20190338038A1 (CELLERANT THERAPEUTICS, published 2019).

The target of assay [1] is human interleukin 1 receptor accessory protein, membrane-bound form on cells (human) (UniProt Q9NPH3). Kind of assay: flow cytometry on primary AML sample 13-AML-02 PB, antibody at 2 ug/mL per paragraph 390. In general terms: A flow cytometer gives signals particle by particle.
The target of assay [2] is T1, IL1-RAP (antigen of the kinetic measurements of Tables 5A and 5B) (human, UniProt Q9NPH3 21-359, limits assumed).
T1 sequence: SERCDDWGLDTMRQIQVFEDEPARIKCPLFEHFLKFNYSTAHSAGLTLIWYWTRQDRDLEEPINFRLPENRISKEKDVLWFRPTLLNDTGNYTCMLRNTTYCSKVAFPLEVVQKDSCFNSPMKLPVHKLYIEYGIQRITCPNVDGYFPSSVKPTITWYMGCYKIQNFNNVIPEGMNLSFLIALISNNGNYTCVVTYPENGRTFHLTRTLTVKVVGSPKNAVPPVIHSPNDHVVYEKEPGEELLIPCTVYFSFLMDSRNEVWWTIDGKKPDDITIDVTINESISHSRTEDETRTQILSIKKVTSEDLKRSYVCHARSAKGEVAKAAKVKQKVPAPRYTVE
Description: kinetics, Table 5A; method and antigen form not stated.

The target in assay [3] is T1, IL1-RAP (antigen of the kinetic …). Description: kinetics, Table 5B; method and antigen form not stated.
The target of assay [4] is T2, human interleukin 1 receptor accessory protein, membrane-bound form on cells (human, UniProt Q9NPH3 21-570).
T2 construct: On IL1-RAP-transfected 293 cells, AML cell lines (EOL-1, HNT-34, OCI-AML2, OCI-AML3), primary AML cells and HEK-Blue IL-1β cells; also called IL1-RAP; receptor IL1-RAP
T2 sequence: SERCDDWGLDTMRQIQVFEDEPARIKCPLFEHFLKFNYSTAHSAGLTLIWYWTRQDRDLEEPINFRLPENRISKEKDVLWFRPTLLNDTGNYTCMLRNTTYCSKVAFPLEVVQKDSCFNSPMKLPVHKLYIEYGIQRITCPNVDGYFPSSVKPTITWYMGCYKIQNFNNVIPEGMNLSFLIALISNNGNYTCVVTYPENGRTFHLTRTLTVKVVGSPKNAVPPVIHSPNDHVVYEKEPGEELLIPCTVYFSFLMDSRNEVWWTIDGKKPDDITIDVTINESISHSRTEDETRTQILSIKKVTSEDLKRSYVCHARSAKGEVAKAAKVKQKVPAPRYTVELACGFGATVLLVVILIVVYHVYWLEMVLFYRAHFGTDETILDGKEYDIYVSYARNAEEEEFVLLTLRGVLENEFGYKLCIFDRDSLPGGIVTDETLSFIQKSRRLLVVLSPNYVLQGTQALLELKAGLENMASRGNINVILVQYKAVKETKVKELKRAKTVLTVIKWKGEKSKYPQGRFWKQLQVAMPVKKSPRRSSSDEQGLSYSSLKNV
Kind of assay: FACS on EOL-1 cells, FITC; antibody concentration not given.

In assay [5] the target is T3, recombinant mouse IL1-RAP (mouse, UniProt Q61730 21-359, limits assumed).
T3 sequence (looked up): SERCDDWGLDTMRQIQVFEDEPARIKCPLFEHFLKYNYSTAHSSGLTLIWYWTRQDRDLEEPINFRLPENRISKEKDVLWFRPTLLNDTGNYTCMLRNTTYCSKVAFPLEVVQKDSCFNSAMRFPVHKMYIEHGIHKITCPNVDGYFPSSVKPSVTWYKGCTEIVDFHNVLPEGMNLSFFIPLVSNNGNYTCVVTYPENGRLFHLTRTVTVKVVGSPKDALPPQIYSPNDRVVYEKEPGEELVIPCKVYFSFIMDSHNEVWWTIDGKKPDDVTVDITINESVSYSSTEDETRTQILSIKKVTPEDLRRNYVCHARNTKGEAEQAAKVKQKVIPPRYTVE
Kind of assay: FACS (GeoMean), bar series mIL1RAP.

For assay [6], the target named is T2, human interleukin 1 receptor accessory …. Description: cell-based or functional assay.
Assay [7] has the same target. Kind of assay: cell-based or functional assay. This is another data set of the same source.
For assay [8] the target is unchanged. Kind of assay: FACS titration on HNT-34 cells in PBS, no competitor.
For assay [9] the target is unchanged. Kind of assay: FACS titration on IL1-RAP transfected 293 cells.
Assay [10] shares this target. Kind of assay: FACS titration on EOL-1 cells.
For assay [11] the target is unchanged. Description: FACS titration on HNT-34 cells.

Where two headings read alike, the source gives them in different places.

mIgG (antibody) came in with a % of cells in the upper right quadrant (CD34 APC high, stain positive) in [1] of 1.57%.

B1: humanized clone of 54.9D7 hH2L3 (antibody, V domains shown)
VH: QVQLVQSGAEVKKPGASVKVSCKASGYIFITYWMNWVRQAPGQGLEWVGQIFPASGTTYYAQKFQGRVTMTVDTSTSTVYMELSSLRSEDTAVYYCARTDFYRYDGGYALDYWGQGTLVTVSS
VL: DIQLTQSPSSLSASVGDRATITCRASQSVSTSGYSSMHWYQQKPGKAPKLLIKYASDLESGVPSRFSGSGSGTDFTLTISSVQPEDFATYYCHHSWGIPMYTFGQGTKLEIKR
notes: Humanized; also called 54.9D7 H2L3
What is called Kd is the constant that tells how readily two partners part at equilibrium. High values mean lower affinity, low ones higher affinity. A word on the koff: it is a measure of how fast the partners let go of each other. A high value points to a short-lived complex. In general, kon refers to the second-order rate constant of association. A higher kon goes with fast association. In [2], B1 gave a Kd of under 0.001 nM, an off-rate constant (koff) of under 1e-07 s⁻¹ and a kon of 141000 M⁻¹ s⁻¹. Besides, in assay [3], the dissociation constant (Kd) was under 0.001 nM, the dissociation rate constant (koff) was under 1e-07 s⁻¹ and the on-rate constant (kon) came out at 169000 M⁻¹ s⁻¹. Moreover, the MFI in [4] came to 124.

B2: humanized clone of 54.9D7 hH1L3 (antibody, V domains shown)
VH: QVQLVQSGAEVKKPGASVKVSCKASGYIFITYWMNWVRQAPGQGLEWMGQIFPASGTTYYAQKFQGRVTMTRDTSTSTVYMELSSLRSEDTAVYYCARTDFYRYDGGYALDYWGQGTLVTVSS
VL: DIQLTQSPSSLSASVGDRATITCRASQSVSTSGYSSMHWYQQKPGKAPKLLIKYASDLESGVPSRFSGSGSGTDFTLTISSVQPEDFATYYCHHSWGIPMYTFGQGTKLEIKR
notes: Humanized; also called 54.9D7 H1L3
In assay [2], B2 came in with a dissociation constant Kd of 0.556 nM, an off-rate (koff) of 7.57e-05 s⁻¹ and an association rate constant (kon) of 136000 M⁻¹ s⁻¹. In assay [3], the equilibrium dissociation constant (Kd) was 0.229 nM, the koff is 3.75e-05 s⁻¹ and the kon is 164000 M⁻¹ s⁻¹. This molecule also came in with an MFI in assay [4] of 100.

B3: humanized clone of 54.9D7 hH3L3 (antibody, V domains shown)
VH: QVQLVQSGAEVKKPGASVKLSCKASGYIFITYWMNWVRQAPGQGLEWVGQIFPASGTTYYAQKFQGRATLTVDTSTSTAYMELSSLRSEDTAVYYCARTDFYRYDGGYALDYWGQGTLLTVSS
VL: DIQLTQSPSSLSASVGDRATITCRASQSVSTSGYSSMHWYQQKPGKAPKLLIKYASDLESGVPSRFSGSGSGTDFTLTISSVQPEDFATYYCHHSWGIPMYTFGQGTKLEIKR
notes: Humanized; also called 54.9D7 H3L3
In [2], B3 displayed a Kd of under 0.001 nM, a koff of under 1e-07 s⁻¹ and a kon of 177000 M⁻¹ s⁻¹. In [3], the equilibrium dissociation constant (Kd) is under 0.001 nM, the dissociation rate constant (koff) was under 1e-07 s⁻¹ and the kon stood at 193000 M⁻¹ s⁻¹. In assay [4], this molecule registered an MFI of 94.3.

B4: anti-IL1-RAP antibody clone 54.9D7 (antibody, V domains shown)
VH: HVQLQQSGPELVRPGASVKLSCKASGYIFITYWMNWVKQRPGQGLEWVGQIFPASGTTYYNELFEGKATLTVDTSSNTAYMHLTSLTSEDSAVYYCARTDFYRYDGGYALDYWGQGTSLTVSS
VL: DIVLTQSPISLAVFLGQRATISCRASQSVSTSGYSSMHWYQQKAGQPPKLLIKYASDLESGVPVRFSGSGSGTDFILNIHPVEVEDIATYYCHHSWGIPMYTFGGGTKLEIKR
notes: Mouse monoclonal antibody from a hybridoma
Broadly, the % Inhibition is the relative decrease from the control value, in per cent. A high value points to strong suppression. With B4, the binding result in [5] is listed as “no binding (tested: not given)”. Besides, the “% Inhibition at 10 ug/mL of IL-1β-induced NF-κB signaling, HEK-Blue IL-1β cells” value in [6] worked out at 92.3%. The “IC50 of inhibition of IL-1β-induced NF-κB signaling, HEK-Blue IL-1β cells” value in assay [6] was found to be 0.03 µg/mL; in assay [7], 0.0323 µg/mL.

B5: Chi54.9D7 HC#1 / h54.9D7 LC3 (antibody, V domains shown)
VH: HVQLQQSGPELVRPGASVKLSCKASGYIFITYWMNWVKQRPGQGLEWVGQIFPASGTTYYNELFEGKATLTVDTSSNTAYMHLTSLTSEDSAVYYCARTDFYRYDGGYALDYWGQGTSLTVSS
VL: DIQLTQSPSSLSASVGDRATITCRASQSVSTSGYSSMHWYQQKPGKAPKLLIKYASDLESGVPSRFSGSGSGTDFTLTISSVQPEDFATYYCHHSWGIPMYTFGQGTKLEIKR
notes: also called chimeric 54.9D7 heavy chain with humanized LC3
Consider B5, for which, in assay [4], the MFI turned out to be 121.

B6: h54.9D7 HC3 / Chi54.9D7 LC#1 (antibody, V domains shown)
VH: QVQLVQSGAEVKKPGASVKLSCKASGYIFITYWMNWVRQAPGQGLEWVGQIFPASGTTYYAQKFQGRATLTVDTSTSTAYMELSSLRSEDTAVYYCARTDFYRYDGGYALDYWGQGTLLTVSS
VL: DIVLTQSPISLAVFLGQRATISCRASQSVSTSGYSSMHWYQQKAGQPPKLLIKYASDLESGVPVRFSGSGSGTDFILNIHPVEVEDIATYYCHHSWGIPMYTFGGGTKLEIKR
notes: also called humanized 54.9D7 HC3 with the chimeric light chain
Regarding B6, the MFI in assay [4] is 20.

B7: anti-IL1-RAP antibody clone 56.12G6 (antibody, V domains shown)
VH: RSNYSSLGAELVKPGASVTLSCEASGYTFTSYWIHWVKQRPGQGLEWIGEINPSHGHTTYNEKFKNKATLTVDKSSSTAYMQVSSLTSEDSAVYYCTRHYGSYYFDLWGQGTTLTVSS
VL: QIVLTQSPAIMSAFPGEKVTMTCRASSSVSYMHWYRQKSGTFPKRWIYDTSKLASGVPARFSGSGSGTSYSLTISSMEAEDAATYYCQQWSTNPITFGAGTKLELK
notes: Mouse monoclonal antibody
What is called EC50 (read off the curve) is the concentration giving half of the maximal effect. Lower therefore signals a more potent agent. B7: the 50% effective concentration (EC50 (read off the curve)) in assay [8] is about 0.9 µg/mL; in assay [9], about 0.4 µg/mL; in assay [10], about 0.6 µg/mL; in assay [11], about 0.2 µg/mL. The binding result in assay [5] is “no binding (tested: not given)”.
